Common to all, as to assay: pull-down
For test [1], the target named is His-tagged WT pCaMKIIα (autophosphorylated at T286) (rat, UniProt P11275 1-478, phosphothreonine at T286 (autophosphorylation)).
Test [2] addresses T1, His-tagged full-length CaMKIIα (M1-H478), wild type (rat, UniProt P11275 1-478).
For test [3], the target named is GST-tagged full-length CaMKIIα (M1-H478) (rat, UniProt P11275 1-478).
Test [4] has as its target T1, His-tagged full-length CaMKIIα …. This is another data set of the same source.
Test [5] shares this target. This is another data set of the same source.

Read-outs that look alike come from different tables or passages of the source. Where no end group is shown, it is not given here.

The text below walks through data of PMC2650276 (Neuron, 2009).

T1 sequence (P11275 whole entry): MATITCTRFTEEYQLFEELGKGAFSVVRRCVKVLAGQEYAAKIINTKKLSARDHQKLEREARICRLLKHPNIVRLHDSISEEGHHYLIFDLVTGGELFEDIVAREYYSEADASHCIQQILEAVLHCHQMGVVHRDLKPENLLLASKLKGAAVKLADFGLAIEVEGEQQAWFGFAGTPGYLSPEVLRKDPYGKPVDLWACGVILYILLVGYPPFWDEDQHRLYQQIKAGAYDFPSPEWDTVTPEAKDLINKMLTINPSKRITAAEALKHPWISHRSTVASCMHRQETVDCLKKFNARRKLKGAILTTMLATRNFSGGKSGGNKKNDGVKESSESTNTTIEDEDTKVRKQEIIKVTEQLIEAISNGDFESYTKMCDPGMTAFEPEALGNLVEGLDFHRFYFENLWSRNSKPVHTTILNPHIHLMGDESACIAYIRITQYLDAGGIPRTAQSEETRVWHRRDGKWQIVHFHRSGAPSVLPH
Chain of His-tagged WT pCaMKIIα (autophosphorylated at T286) (P11275 whole entry): as above
Chain of GST-tagged full-length CaMKIIα (M1-H478) (P11275 whole entry): as above

B1: GST-D3RIL3 (R210-Q375) (domain or fragment, rat, UniProt P19020 210-375, looked up)
chain: RIYIVLRQRQRKRILTRQNSQCISIRPGFPQQSSCLRLHPIRQFSIRARFLSDATGQMEHIEDKQYPQKCQDPLLSHLQPPSPGQTHGGLKRYYSICQDTALRHPSLEGGAGMSPVERTRNSLSPTMAPKLSLEVRKLSNGRLSTSLRLGPLQPRGVPLREKKATQ
On to B1, for which the binding result in test [1] and in test [2] was “binds” throughout.

B2: D3RIL3 (R210-Q375), released from GST by thrombin (domain or fragment, rat, UniProt P19020 210-375, looked up)
chain: RIYIVLRQRQRKRILTRQNSQCISIRPGFPQQSSCLRLHPIRQFSIRARFLSDATGQMEHIEDKQYPQKCQDPLLSHLQPPSPGQTHGGLKRYYSICQDTALRHPSLEGGAGMSPVERTRNSLSPTMAPKLSLEVRKLSNGRLSTSLRLGPLQPRGVPLREKKATQ
Turning to B2, the binding result in test [3] is “binds”.
Take YGRKKRRQRRRRILTRQNSQCISIRP (also: biotin, position not given here) [biotinylated Tat-D3Rr]: the binding result in test [4] is “binds”.
In the case of RIYIVLRQRQRKRILTRQNSQCISIRPGFP (domain or fragment, rat, UniProt P19020 210-239, looked up) [GST-D3RIL3(R210-P239)], the binding result in test [1] and in test [5] was “binds” each time.
